B3: S. pombe single isoform (α1β) tubulin (complex)
chain 1: MREVISVHVGQAGVQIGNACWELYCLEHGIGPDGFPTENSEVHKNNSYLNDGFGTFFSETGQGKFVPRSIYVDLEPNVIDQVRTGPYKDLFHPEQMVTGKEDASNNYARGHYTVGKEMIDSVLERIRRMADNCSGLQGFLVFHSFGGGTGSGLGALLLERLNMEYGKKSNLQFSVYPAPQVSTSVVEPYNSVLTTHATLDNSDCTFMVDNEACYDICRRNLDIERPTYENLNRLIAQVVSSITASLRFAGSLNVDLNEFQTNLVPYPRIHFPLVTYSPIVSAAKAFHESNSVQEITNQCFEPYNQMVKCDPRTGRYMATCLLYRGDVIPRDVQAAVTSIKSRRTIQFVDWCPTGFKIGICYEPPQHVPGSGIAKVNRAVCMLSNTTSIAEAWSRLDHKFDLMYSKRAFVHWYVGEGMEEGEFSEAREDLAALERDYEEVGQDSMDNEMYEADEEY
chain 2: MREIVHIQAGQCGNQVGAAFWSTIADEHGLDSAGIYHGTSEAQHERLNVYFNEAAGGKYVPRAVLVDLEPGTMDAVKSGKFGNLFRPDNIIYGQSGAGNIWAKGHYTEGAELADAVLDVVRREAEACDALQGFQLTHSLGGGTGSGMGTLLLSKIREEYPDRMMATFSVAPAPKSSDTVVEPYNATLSMHQLVENSDETFCIDNEALSSIFANTLKIKSPSYDDLNHLVSAVMAGVTTSFRFPGELNSDLRKLAVNMVPFPRLHFFMVGFAPLAAIGSSSFQAVSVPELTQQMFDANNMMVAADPRHGRYLTVAALFRGKVSMKEVDEQIRSVQTKNSAYFVEWIPDNVLKAVCSVPPKDLKMSATFIGNSTSIQEIFRRLGDQFSAMFRRKAFLHWYTGEGMDEMEFTEAESNMNDLVSEYQQYQEAGIDEGDEDYEIEEEKEPLEY
notes: alpha-1 tubulin (α1) of S. pombe, from strain mmsp174 (atb2 replaced by nda2+); beta tubulin (β) of S. pombe, from strain mmsp174; Stands both as the free GTP-tubulin heterodimer and as the growing plus end of the microtubule polymerised from it; which of the two is meant is told in the assay's format and the quantity; also called GTP-tubulin; T (tubulin dimer); source: purified from S. pombe …

Data set [1] deals with S. pombe dual-isoform (α1β + α2β) tubulin (S. pombe) (UniProt P04688). As to the kind of experiment: DIC video microscopy of microtubule growth; addition of GTP-tubulin to plus and minus ends of MTs nucleated by axoneme fragments; growth rate against tubulin concentration, linear regression, apparent rate constants; 100 mM K-PIPES, 1 mM MgSO4, 2 mM EGTA, 1 mM DTT pH 6.9, 1 mM GTP, no glycerol, 25 °C.

Data set [2] deals with B3. The experiment in a line: microtubule growth rates (dark-field microscopy) with Alp14, fit of a kinetic model; Alp14-facilitated pathway T + M + E = TE + M = E + (M+1); Alp14 resident at the plus end of S. pombe α1β microtubules grown from GMPCPP seeds; 6 µM or 0.5 µM tubulin, nanomolar Alp14, PEM100, 25 °C; constants are parameters fitted to or constrained by the growth data, steady state assumed. Particulars: both partners purified.

The target of data set [3] is B3. Described as above. To be noted: both partners purified. This is another data set of the same source.
Data set [4] concerns the molecule itself. As to the kind of experiment: glycerol gradient centrifugation; 5-40% glycerol gradient of purified Alp14, Alp7 and tubulin, alone or mixed; tubulin as GTP-tubulin where stated; fractions on SDS-PAGE with Coomassie staining.
Data set [5] deals with the molecule itself. As to the kind of experiment: microtubule growth rates (VE-DIC video microscopy) against tubulin concentration, fit of a bimolecular reaction; GTP-tubulin dimer adding to and leaving the microtubule plus end; single isoform S. pombe tubulin in PEM at 25 °C, without Alp14; apparent rate constants per microtubule end in dimers.

In the case of “S. pombe dual-isoform (α1β + α2β) tubulin (from UniProt P04688 1-455; P04689 1-449; P05219 1-448) (complex)”, in data set [1], the Kd = koff/kon (critical concentration), minus end came out at 1.9 µM; the Kd = koff/kon (critical concentration), plus end is 2 µM; the koff, minus end came out at 3.1 nm/s; the koff, plus end came out at 9.3 nm/s. Besides, in data set [1], the kon, minus end (nm s^−1 μM^−1) stood at 1.6 and the kon, plus end (nm s^−1 μM^−1) was 4.7.

B1: Alp14 (full length, S. pombe TOG-family microtubule polymerase) (enzyme, UniProt O94534 1-809, looked up)
chain: MSQDQEEDYSKLPLESRIVHKVWKVRLSAYEECSKSFSLSADGSDNCFELWNNQSELWKSVLTDSNVAAQEAGTAAFVAYCRFSDPSHLLKAREISVLSISEKCLTSPRAGTRENALEALMLLVEADSAAPVIESIIPSLSARSPKVIASNVAAIASLVEQFGAKVIPSKMIIPHISNLFGHADKNVRKEASRLTVNIYRWTGDPLKDLLFKDLRPVQTKELESLFAELPTEPPKQTRFLKSQQPTSEPNVETQVEEQPALENEESEPEPSDDQFDLVEEVDVLPNVDPNLETLMASSKWKDRKEALDKLLPVLSQPKIKDNDFFNLVAILTKSVSKDANIMVVINAAHCIQAMAKGLRSNFSKYASTSINALLERSKEKKANVIESLSSAMDAVLATSSLDDLAELIASFAGNKNPQIKSSCFSLFSRSFSNMTSLPSKFTVDTCAKACVPGVSDTFEPVRSAAAEALGVLMKLVGERAINQYLSPLDDIRKSKIRSFYETATVKAKAPTKKSKVKPSKQEESKVVVPSNAKAVKKSVVPSSPVVPSPRKATNKSLSMDVSKGNAFENGPLLPRPTTRPVSRGLSRGTSSSLQQKVKASTPLNSGALNETVQNLKNMELDDPAPQPAKHSRVDRYEHPKVLEDNDSTISSLESLKRENEELREQLKVEHEENISMQKQLSELKGELNTLRSARKASPIGDRKPAFMRRANTDFLELSTSPSFQRSVREFEPTRPKLYSSIDVNQRSPLASAKTNGNFTFHAELPRSPFSSRANNINPDWTKAIDLAAKLKQKITEMKQTDQRHQGLIH
notes: Alp14, S. pombe, full length; gene PCR-amplified from wild type genomic S. pombe DNA; also called Alp14/TOG
Take B1: the equilibrium dissociation constant (Kd) in data set [2] is above 0.005 µM. In addition, in data set [3], the dissociation constant Kd was 0.006 µM, the koff was in the range of 1 to 15 s⁻¹ and the kon is above 4e+07 M⁻¹ s⁻¹.

B2: Alp14, full length, with a C-terminal his or Avi tag (natural protein, S. pombe, UniProt O94534 1-809, looked up)
chain: MSQDQEEDYSKLPLESRIVHKVWKVRLSAYEECSKSFSLSADGSDNCFELWNNQSELWKSVLTDSNVAAQEAGTAAFVAYCRFSDPSHLLKAREISVLSISEKCLTSPRAGTRENALEALMLLVEADSAAPVIESIIPSLSARSPKVIASNVAAIASLVEQFGAKVIPSKMIIPHISNLFGHADKNVRKEASRLTVNIYRWTGDPLKDLLFKDLRPVQTKELESLFAELPTEPPKQTRFLKSQQPTSEPNVETQVEEQPALENEESEPEPSDDQFDLVEEVDVLPNVDPNLETLMASSKWKDRKEALDKLLPVLSQPKIKDNDFFNLVAILTKSVSKDANIMVVINAAHCIQAMAKGLRSNFSKYASTSINALLERSKEKKANVIESLSSAMDAVLATSSLDDLAELIASFAGNKNPQIKSSCFSLFSRSFSNMTSLPSKFTVDTCAKACVPGVSDTFEPVRSAAAEALGVLMKLVGERAINQYLSPLDDIRKSKIRSFYETATVKAKAPTKKSKVKPSKQEESKVVVPSNAKAVKKSVVPSSPVVPSPRKATNKSLSMDVSKGNAFENGPLLPRPTTRPVSRGLSRGTSSSLQQKVKASTPLNSGALNETVQNLKNMELDDPAPQPAKHSRVDRYEHPKVLEDNDSTISSLESLKRENEELREQLKVEHEENISMQKQLSELKGELNTLRSARKASPIGDRKPAFMRRANTDFLELSTSPSFQRSVREFEPTRPKLYSSIDVNQRSPLASAKTNGNFTFHAELPRSPFSSRANNINPDWTKAIDLAAKLKQKITEMKQTDQRHQGLIH
notes: Alp14, TOG-family microtubule polymerase of S. pombe, full length; gene PCR-amplified from wild-type genomic S. pombe DNA; also called Alp14/TOG; full length Alp14
B2: in data set [4], the binding result is “binds”.
Turning to B3, in data set [5], the koff was 6.6 s⁻¹ and the kon was 5.5e+06 M⁻¹ s⁻¹.

B4: Alp7, full length, with an N-terminal avi-tag (natural protein, S. pombe, UniProt Q9URY2 1-474, looked up)
chain: MSDIVSSSTDYSRRSPSSSSIGTNETDHTGFHEKRQGASSESLIPPAQRSSEESMPAPKLFPKLTSKPNPQLNLKDTLNKRVSDRLQALELNKSFDFSGTPRPMHPISHPLSQHKTPEFKHRKRNVESILTPKNPSLFSSSNAASQRGSLNTAPSNFAYSHSSSLQTSASSRPPVLSNGSFPRQTNTAPLNPPVHLKDNIRNSATPSTSQADIPTQYPINSTQKQQAKYEAEIEGYKAKLAGTYHEISVLQNTIVNVSGQLIAVNDQLQQLRSGKASTSPSTKDTNMRLVEGHNEETLALQRGKYTQEEVDKLIQERMEKVAEDLHAQYSAKHTQKINAFKANYARKYEATIQELQNQIGTAPNAPKISNSNWEEERRALKADNQTLQKQLEKAIQERQDMSDFLNNFKADMAKSDKLLMQQQSQQTGDLETLRLQLQALQEELRVEREERQQLIQMSEDLVIAMDQLNLEQKS
modifications: biotin on the AviTag (BirA ligase co-expressed to ensure biotinylation)
notes: Alp7 (Mia1p), TACC-family protein of S. pombe, full length; gene PCR-amplified from wild-type genomic S. pombe DNA; also called Alp7/TACC; Mia1p; source: Sf9 insect cells (baculovirus, BirA ligase co-expressed), purified on monomeric avidin agarose
Take B4: the binding result in data set [4] is “binds”.

A word on the Kd: it is the constant that tells how readily two partners part at equilibrium. Usually koff stands for the rate constant with which the complex falls apart. As a reminder, the kon is the second-order rate constant of association.

(Values after PMC4749977, “Alp7/TACC-Alp14/TOG generates long-lived, fast-growing MTs by an unconventional mechanism” (Scientific Reports, 2016).)
